From PMC11712212 (Chemical Science, 2024)
Bridge positions count the residues as written; N and C are the ends. Ends that are not written are not given here. Peptide text beside a SMILES is read from it.

How the values were obtained:
[1] = target: QTGG (Homo sapiens, UniProt P63165); experiment: Isothermal titration calorimetry; format: binding
[2] = target: DV12 ([…]) (Homo sapiens, UniProt P63165); experiment: Biolayer interferometry; format: binding
[3] = target: T1, QTGG, short SUMO-1 remnant after trypsin and Glu-C digestion; experiment: ITC
T1 sequence (peptide): QTGG

[4] = target: SUMO-1 protein (UniProt P63165 1-97); experiment: BLI
Sequence of SUMO-1 protein (P63165 1-97): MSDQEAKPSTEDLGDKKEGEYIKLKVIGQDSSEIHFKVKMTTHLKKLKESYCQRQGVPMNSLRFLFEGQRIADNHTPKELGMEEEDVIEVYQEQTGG

In the case of `CC(C)C[C@@H]1NC(=O)[C@H](Cc2c[nH]c3ccccc23)NC(=O)[C@H](CCCCN)NC(=O)[C@H](CCC(=O)O)NC(=O)[C@@H]2CCCN2C(=O)[C@@H](N)CSSC[C@@H](C(=O)O)NC(=O)[C@H]([C@@H](C)O)NC(=O)CNC1=O` [CP-1, CPEKWLGTC] (HELM PEPTIDE1{C.P.E.K.W.L.G.T.C}$PEPTIDE1,PEPTIDE1,1:R3-9:R3$$$V2.0; N-terminus and C-terminus assumed), the Kd [1] is reported as 71.8 nM.

`CC(C)C[C@H](NC(=O)[C@@H](N)CCCCN)C(=O)N[C@@H](CCCNC(=N)N)C(=O)N[C@@H](Cc1c[nH]c2ccccc12)C(=O)N[C@H](C(=O)N[C@@H](CC(=O)O)C(=O)N[C@@H](Cc1ccc(O)cc1)C(=O)N[C@@H](C)C(=O)N[C@@H](CCCCN)C(=O)N[C@@H](CCCCN)C(=O)N[C@@H](CCCNC(=N)N)C(=O)N[C@@H](CCCCN)C(=O)O)[C@@H](C)O` [PEP-4, KLRWTDYAKKRK] (H-KLRWTDYAKKRK-OH) showed a Kd [2] of 2 nM.

CPEKWLGTC (disulfide 1-9) [CP-1 (…), cystine-linked cyclic peptide] was tested, and the Kd [3] was 71.8 nM.

CMTPNPTTC (disulfide 1-9) [CP-2 (…)] showed a Kd [3] of 1800 nM.

KLRWTDYAKKRK [PEP-4 (KLRWTDYAKKRK)] was tested, and the Kd [4] was 43.7 nM.
